Biological target: phosphorylated receiver domain of LytR (LytR^N-P) (Staphylococcus aureus strain Mu50) (UniProt P60609)
Experiment: native gel or EMSA; LytR^N and LytR^N-P (phosphorylated by acetyl phosphate) at 10, 20 and 40 µM on native-PAGE (10% in the methods, 15% in the legend), buffer kept at 4°C, Coomassie stain

stoichiometry N: 2
Substance: phosphorylated receiver domain of LytR (LytR^N-P) (from UniProt P60609 1-134) (domain or fragment)

From article PMC4830213, “Signaling mechanism by the Staphylococcus aureus two-component system LytSR: role of acetyl phosphate in bypassing the cell membrane electrical potential sensor LytS” (F1000Research, 2016)
